Data: publication doi:10.1101/536094 (bioRxiv, 2019)
Substitutions are numbered along the chain they refer to. “And” between values parts separate entries of the source, which are not always exact repeats. Equal entries are not always repeated.

How the values were obtained:
[1] = target: Volvox carteri f. nagarensis CaMKII hub domain (Volvox carteri f. nagarensis); experiment: native MS
[2] = target: Gonium pectoral CaMKII hub domain (Gonium pectoral); experiment: native MS
[3] = target: Chlamydomonas reinhardtii CaMKII hub domain (Chlamydomonas reinhardtii); experiment: crystal structure
[4] = target: Chlamydomonas reinhardtii CaMKII hub domain (Chlamydomonas reinhardtii); experiment: native MS
native MS = target: the molecule itself; experiment: native MS
crystal structure = target: the molecule itself; experiment: crystal structure

With “Volvox carteri f. nagarensis CaMKII hub domain (domain or fragment)” the stoichiometry N [1] was 18 subunits and 20 subunits.

With “Gonium pectoral CaMKII hub domain (domain or fragment)” the stoichiometry N [2] was 16 subunits and 18 subunits.

“Chlamydomonas reinhardtii CaMKII hub domain (domain or fragment)” showed a stoichiometry N [3] of 18 subunits and a stoichiometry N [4] of 18 subunits.

B1: wild-type human CaMKII-α hub domain (domain or fragment, UniProt Q9UQM7 345-475, looked up)
chain: VRKQEIIKVTEQLIEAISNGDFESYTKMCDPGMTAFEPEALGNLVEGLDFHRFYFENLWSRNSKPVHTTILNPHIHLMGDESACIAYIRITQYLDAGGIPRTAQSEETRVWHRRDGKWQIVHFHRSGAPSV
For B1, the “stoichiometry N” value (native MS) was 12 subunits and 14 subunits.

B2: six-mutant human CaMKII-α hub domain (domain or fragment, UniProt Q9UQM7 345-475, looked up)
chain: B1 chain with T10N, E11Q, T68N, I70M, I120H, F123M
For B2, the “stoichiometry N” value (crystal structure) was 14 subunits and the “stoichiometry N” value (native MS) was 16 subunits.
